Data as given in publication PMC9995687.

Target: Human STIM1, N-terminally ECFP-tagged, Q13586-1
Experiment: FRET microscopy (Eapp) in cells
Conditions: read off a plot

Substance | response (+TG (1 μM), +UV, n = 8) | response (+TG (1 μM), -UV, n = 8) | response (-TG, +UV, n = 8) | response (-TG, -UV, n = 8) | response (+TG (1 μM), +UV, n = 9, parent: est. 0.11) | response (+TG (1 μM), -UV, n = 9, parent: est. 0.11) | response (-TG, +UV, n = 9, parent: est. 0.010) | response (-TG, -UV, n = 9, parent: est. 0.008)
Human Orai1 wild-type, C-terminally YFP-labelled (from UniProt Q96D31-1) A137Bpa | 0.11 Eapp | 0.11 Eapp | 0.01 Eapp | 0.008 Eapp |  |  |  | 
Orai1 A137Bpa, C-terminally YFP-labelled (from UniProt Q96D31-1) L273D |  |  |  |  | 0.004 Eapp | 0.002 Eapp | 0.003 Eapp | 0.006 Eapp
